Results from the Human Domainome abundance scans (Beltran et al. 2025).
± gives the uncertainty stated by the source.

B1: Retinoic acid receptor beta, residues 85 to 161; numbered along this chain, P10826 (parent)
chain: YKPCFVCQDKSSGYHYGVSACEGCKGFFRRSIQKNMIYTCHRDKNCVINKVTRNRCQYCRLQKCFEVGMSKESVRND

Variants of: B1
Assay: abundance fitness (aPCA) (normalised: wild type 0, dead -1); higher = more abundant; growth selection in yeast, the domain comes from the species named
Conditions: Homo sapiens
With YKPCFVCQDKSSGYHYGVSACEGCKGFFRRSIQKNMIYTCHRDKNCVINKVTRNRCQYCRLQKCFEVGMSKESVRDD the abundance fitness was 0.018 ± 0.079.
YKPCFVCQDKSSGYHYGVSACEGCKGFFRRSIQKNMIYTCHRDKNCVINKVTRNRCQYCRLQKCFEVGMSKESVRAD showed an abundance fitness of 0.084 ± 0.054.
YKPCFVCQDKSSGYHYGVSACEGCKGFFRRSIQKNMIYTCHRDKNCVINKVTRNRCQYCRLQKCFEVGMSKESVRCD gave an abundance fitness of -0.105 ± 0.079.
In the case of YKPCFVCQDKSSGYHYGVSACEGCKGFFRRSIQKNMIYTCHRDKNCVINKVTRNRCQYCRLQKCFEVGMSKESVRTD, the abundance fitness is reported as -0.15 ± 0.088.
Work on YKPCFVCQDKSSGYHYGVSACEGCKGFFRRSIQKNMIYTCHRDKNCVINKVTRNRCQYCRLQKCFEVGMSKESVRLD yielded an abundance fitness of 0.013 ± 0.054.
Variant YKPCFVCQDKSSGYHYGVSACEGCKGFFRRSIQKNMIYTCHRDKNCVINKVTRNRCQYCRLQKCFEVGMSKESVRFD has an abundance fitness of -0.012 ± 0.11.
Variant YKPCFVCQDKSSGYHYGVSACEGCKGFFRRSIQKNMIYTCHRDKNCVINKVTRNRCQYCRLQKCFEVGMSKESVRHD has an abundance fitness of -0.144 ± 0.21.
YKPCFVCQDKSSGYHYGVSACEGCKGFFRRSIQKNMIYTCHRDKNCVINKVTRNRCQYCRLQKCFEVGMSKESVRSD showed an abundance fitness of 0.148 ± 0.053.
With YKPCFVCQDKSSGYHYGVSACEGCKGFFRRSIQKNMIYTCHRDKNCVINKVTRNRCQYCRLQKCFEVGMSKESVRRD the abundance fitness was -0.039 ± 0.046.
YKPCFVCQDKSSGYHYGVSACEGCKGFFRRSIQKNMIYTCHRDKNCVINKVTRNRCQYCRLQKCFEVGMSKESVRED showed an abundance fitness of 0.194 ± 0.061.
Work on YKPCFVCQDKSSGYHYGVSACEGCKGFFRRSIQKNMIYTCHRDKNCVINKVTRNRCQYCRLQKCFEVGMSKESVRMD yielded an abundance fitness of -0.061 ± 0.082.
YKPCFVCQDKSSGYHYGVSACEGCKGFFRRSIQKNMIYTCHRDKNCVINKVTRNRCQYCRLQKCFEVGMSKESVRGD gave an abundance fitness of -0.048 ± 0.049.
With YKPCFVCQDKSSGYHYGVSACEGCKGFFRRSIQKNMIYTCHRDKNCVINKVTRNRCQYCRLQKCFEVGMSKESVRKD the abundance fitness was 0.01 ± 0.058.
In the case of YKPCFVCQDKSSGYHYGVSACEGCKGFFRRSIQKNMIYTCHRDKNCVINKVTRNRCQYCRLQKCFEVGMSKESVRID, the abundance fitness is reported as -0.149 ± 0.13.
For YKPCFVCQDKSSGYHYGVSACEGCKGFFRRSIQKNMIYTCHRDKNCVINKVTRNRCQYCRLQKCFEVGMSKESVRPD, the abundance fitness was 0.146 ± 0.066.
Work on YKPCFVCQDKSSGYHYGVSACEGCKGFFRRSIQKNMIYTCHRDKNCVINKVTRNRCQYCRLQKCFEVGMSKESVRQD yielded an abundance fitness of 0.058 ± 0.1.
YKPCFVCQDKSSGYHYGVSACEGCKGFFRRSIQKNMIYTCHRDKNCVINKVTRNRCQYCRLQKCFEVGMSKESYRND showed an abundance fitness of -0.297 ± 0.12.
For YKPCFVCQDKSSGYHYGVSACEGCKGFFRRSIQKNMIYTCHRDKNCVINKVTRNRCQYCRLQKCFEVGMSKESWRND, the abundance fitness was -0.14 ± 0.052.
For YKPCFVCQDKSSGYHYGVSACEGCKGFFRRSIQKNMIYTCHRDKNCVINKVTRNRCQYCRLQKCFEVGMSKESTRND, the abundance fitness was -0.012 ± 0.064.
Work on YKPCFVCQDKSSGYHYGVSACEGCKGFFRRSIQKNMIYTCHRDKNCVINKVTRNRCQYCRLQKCFEVGMSKESVVND yielded an abundance fitness of 0.046 ± 0.042.
YKPCFVCQDKSSGYHYGVSACEGCKGFFRRSIQKNMIYTCHRDKNCVINKVTRNRCQYCRLQKCFEVGMSKESVQND showed an abundance fitness of 0.163 ± 0.095.
With YKPCFVCQDKSSGYHYGVSACEGCKGFFRRSIQKNMIYTCHRDKNCVINKVTRNRCQYCRLQKCFEVGMSKESVNND the abundance fitness was 0.073 ± 0.092.
For YKPCFVCQDKSSGYHYGVSACEGCKGFFRRSIQKNMIYTCHRDKNCVINKVTRNRCQYCRLQKCFEVGMSKESVYND, the abundance fitness was 0.118 ± 0.077.
For YKPCFVCQDKSSGYHYGVSACEGCKGFFRRSIQKNMIYTCHRDKNCVINKVTRNRCQYCRLQKCFEVGMSKESVKND, the abundance fitness was -0.018 ± 0.065.
YKPCFVCQDKSSGYHYGVSACEGCKGFFRRSIQKNMIYTCHRDKNCVINKVTRNRCQYCRLQKCFEVGMSKESVDND showed an abundance fitness of -0.051 ± 0.078.
YKPCFVCQDKSSGYHYGVSACEGCKGFFRRSIQKNMIYTCHRDKNCVINKVTRNRCQYCRLQKCFEVGMSKESVCND showed an abundance fitness of 0.175 ± 0.065.
Work on YKPCFVCQDKSSGYHYGVSACEGCKGFFRRSIQKNMIYTCHRDKNCVINKVTRNRCQYCRLQKCFEVGMSKESVPND yielded an abundance fitness of 0.039 ± 0.073.
Work on YKPCFVCQDKSSGYHYGVSACEGCKGFFRRSIQKNMIYTCHRDKNCVINKVTRNRCQYCRLQKCFEVGMSKESVLND yielded an abundance fitness of 0.102 ± 0.04.
Work on YKPCFVCQDKSSGYHYGVSACEGCKGFFRRSIQKNMIYTCHRDKNCVINKVTRNRCQYCRLQKCFEVGMSKESVWND yielded an abundance fitness of 0.065 ± 0.043.
In the case of YKPCFVCQDKSSGYHYGVSACEGCKGFFRRSIQKNMIYTCHRDKNCVINKVTRNRCQYCRLQKCFEVGMSKESVAND, the abundance fitness is reported as 0.137 ± 0.044.
Work on YKPCFVCQDKSSGYHYGVSACEGCKGFFRRSIQKNMIYTCHRDKNCVINKVTRNRCQYCRLQKCFEVGMSKESVHND yielded an abundance fitness of 0.078 ± 0.11.
For YKPCFVCQDKSSGYHYGVSACEGCKGFFRRSIQKNMIYTCHRDKNCVINKVTRNRCQYCRLQKCFEVGMSKESVSND, the abundance fitness was -0.045 ± 0.055.
In the case of YKPCFVCQDKSSGYHYGVSACEGCKGFFRRSIQKNMIYTCHRDKNCVINKVTRNRCQYCRLQKCFEVGMSKESVGND, the abundance fitness is reported as 0.09 ± 0.034.
YKPCFVCQDKSSGYHYGVSACEGCKGFFRRSIQKNMIYTCHRDKNCVINKVTRNRCQYCRLQKCFEVGMSKESVFND gave an abundance fitness of -0.187 ± 0.12.
In the case of YKPCFVCQDKSSGYHYGVSACEGCKGFFRRSIQKNMIYTCHRDKNCVINKVTRNRCQYCRLQKCFEVGMSKESVTND, the abundance fitness is reported as -0.02 ± 0.06.
YKPCFVCQDKSSGYHYGVSACEGCKGFFRRSIQKNMIYTCHRDKNCVINKVTRNRCQYCRLQKCFEVGMSKESVEND gave an abundance fitness of 0.124 ± 0.045.
